From PMC6018426, “Crystal structure of the catalytic domain of HIV-1 restriction factor APOBEC3G in complex with ssDNA”

Key:
[1] = target: CTD2* (A3G-CTD2 E259A), GST-purified (Homo sapiens, UniProt Q9HC16 191-384, P200A;L234K;N236A;C243A;P247K;E259A;F310K;Q318K;C321A;Q322A;C356A); assay: competition; EMSA; unlabeled competitor 25-2500 nM against N2; band not affected; 20 mM Bis-Tris pH 6.5, 100 mM NaCl, 1 mM DTT, 0.002% Tween 20; ZnCl2 20 uM (MST) or 10 uM (EMSA); MST incubated at 4 C, measured at room temperature; EMSA incubated 1 h at room temperature, gel at 4 C; settings: protein: recombinant; tags: GST removed by PreScission protease (pGEX6P-1)
[2] = target: CTD2* (A3G-CTD2 E259A), His-tagged (Homo sapiens, UniProt Q9HC16 191-384, P200A;L234K;N236A;C243A;P247K;E259A;F310K;Q318K;C321A;Q322A;C356A); assay: MST; Zn2+ (20 uM ZnCl2); 20 mM Bis-Tris pH 6.5, 100 mM NaCl, 1 mM DTT, 0.002% Tween 20; ZnCl2 20 uM (MST) or 10 uM (EMSA); MST incubated at 4 C, measured at room temperature; EMSA incubated 1 h at room temperature, gel at 4 C; settings: protein: recombinant; tags: poly-His (pET-28a), RED-tris-NTA dye
Chain of CTD2* (A3G-CTD2 E259A), His-tagged (Q9HC16 191-384 P200A/L234K/N236A/C243A/P247K/E259A/F310K/Q318K/C321A/Q322A/C356A): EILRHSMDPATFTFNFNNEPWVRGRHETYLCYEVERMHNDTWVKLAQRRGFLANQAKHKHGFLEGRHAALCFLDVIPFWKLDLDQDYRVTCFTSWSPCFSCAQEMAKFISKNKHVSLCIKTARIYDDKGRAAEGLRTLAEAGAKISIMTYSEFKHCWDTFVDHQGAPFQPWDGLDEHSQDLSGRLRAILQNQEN

Chain of CTD2* (A3G-CTD2 E259A), GST-purified (Q9HC16 191-384 P200A/L234K/N236A/C243A/P247K/E259A/F310K/Q318K/C321A/Q322A/C356A): as above

| Binder | binding result [1] | Kd [2] [µM] |
| --- | --- | --- |
| AAAAAAAAA (ssDNA) [9nt polyA] | no binding | – |
| AATCCCAAA (ssDNA) [9nt substrate ssDNA] | – | 55 ± 12 |
| AAUCCCAAA (ssRNA) [9nt RNA] | – | 1500 ± 500 |
